Laboratory results as given in article PMC9468151, “Identification of a binding site on soluble RANKL that can be targeted to inhibit soluble RANK-RANKL interactions and treat osteoporosis” (Nature Communications, 2022).
Numbering of substitutions follows the chain as printed. Names may count otherwise. “And” between values parts separate entries of the source, which are not always exact repeats. Equal values may be shown once.

Tested on: BMM cells
Assay: Osteoclastogenic assay of WT, single-point mutated sRANKL and L-RANKL
Format: cell-based, mouse
Details: for number of osteoclasts (fig. 1f): BMMs, M-CSF 10 ng/mL; for osteoclast formation (fig. S4a): three replicates
Experimental: Fig. 1 Evidence for selective sRANKL inhibition binding site identification. a Proposed small molecule binding site that can be used to distinguish sRANKL from mRANKL. b he probabilities that distances of residue pairs greater than 1.8 Å in sRANKL (red) and mRANKL (blue). The data are calculated based on conformation trajectories from 100 ns MD simulations on sRANKL and mRANKL. c SDRP frequency in sRANKL and mRANKL. d, e The distance of Y236-D303 and K182-R224 in sRANKL and mRANKL after MD simulation. f, g and h Osteoclastogenesis function of single-point mutated rat sRANKL and WT sRANKL. Representative TRAP staining images from one well each, with triplicate repeats wells of BMM cells isolated from C57BL/6 mice cultured with colony-stimulating factor 1 (M-CSF (10 ng/mL) and either varying WT sRANKL or mutated sRANKL (25–200 ng/mL). The number of osteoclasts counted in the osteoclastogenesis assay with mutated sRANKL. Data were presented as group mean ± s.d., n = 3 biological replicates.
Mouse osteoclasts were cultured according to the previously reported protocols. BMMs were plated in 96-well plates at a density of 6 × 10^3 cells/well with complete medium containing 10 ng/mL M-CSF. The following day, cells were then stimulated with 100 ng/mL sRANKL in the presence or absence of compounds with different concentrations every 2 days until osteoclasts formed. In order to calculate IC50, we set 9 concentrations for each compound and untreated and non-sRANKL unstimulating group as controls, each with triplicated repeated wells. After 5 days, cells were fixed with 4% paraformaldehyde and then applied TRAP-staining to identify osteoclasts by using the TRAP-staining kit. Osteoclasts number (OC No.) in each well was counted and the percentage of inhibition ratio was calculated as follows:1 OCinhibitoryratio%=100−OCNo.treated−OCNo.unstimulating/OCNo.untreated−OCNo.unstimulating×100%
GST-sRANKL was expressed and purified following a previously reported protocol. Rat sRANKL (aa160–318) cDNA was cloned into the bacterial expression vectors pGEX-3X and pGEX-2T with purification GST tag and resultant plasmid named p3rRANKL1. Label-free sRANKL protein in this study was obtained by removing His6-sumo tag from fusion protein His6-sumo-sRANKL. The DNA sequence encoding sRNAKL was inserted downstream the His6-sumo tag of a modified pET20b (+) plasmid. Single point mutations of sRANKL (K182A, R192A, W194A, R224A, H226A, E227A, Q238A, Y242A, H254A, N255A, E270A, K283A, D301A, D303A, or D305A) were constructed by PCR amplification using primer pairs to introduce the designed mutations to pET20b-His6-sumo-sRANKL recombinant plasmid. L-RANKL (binary-RANKL) plasmid was constructed as follow: the consecutive DNA sequence sequentially encoding His6-sumo tag and two sRANKL monomers was cloned into pET20b by PCR amplification using primer pairs to introduce the following restriction enzyme sites to the coding sequences: Nde I-His6-sumo-sRANKL-Bam HI and Bam HI-sRNAKL-Xho I. Each PCR product was double digested with the appropriate restriction enzymes (Thermo) and ligated to the pET20b vector between the Nde I and Xho I sites. Gly-Ser-Gly-Ser was designed to link the two monomers. After confirmed by sequence analysis, the recombinant plasmids were transformed into Escherichia coli BL21 (DE3) cells. The transformed cells were grown in LB media till OD600 about 0.6, then 0.15 mM IPTG was added to induce protein overexpression for 16 h at 20 °C.

B1: H226A: single-point mutated rat sRANKL (protein, UniProt Q9ESE2 69-318, looked up, variant H226A)
extracellular domain: LYFRAQMDPNRISEDSTRCFYRILRLRENTGLQDSTLESEDTEALPDSCRRMKQAFQGAVQRELQHIVGPQRFSGVPAMMEGSWLDVARRGKPEAQPFAHLTINAADIPSGSHKVSLSSWYHDRGWAKISNMTLSNGKLRVNQDGFYYLYANICFRHAETSGSVPADYLQLMVYVVKTSIKIPSSHNLMKGGSTKNWSGNSEFHFYSINVGGFFKLRAGEEISVQVSNPSLLDPDQDATYFGAFKVQDID
modifications: extracellular domain
notes: single-point mutated rat sRANKL
- number of osteoclasts (fig. 1f) (sRANKL protein 25 ng/mL): 0
- number of osteoclasts (fig. 1f) (sRANKL protein 50 ng/mL): 0
- number of osteoclasts (fig. 1f) (sRANKL protein 100 ng/mL): 0
- number of osteoclasts (fig. 1f) (sRANKL protein 200 ng/mL): 0

B2: Q238A: single-point mutated rat sRANKL (protein, UniProt Q9ESE2 69-318, looked up, variant Q238A)
extracellular domain: B1 extracellular domain with A158H, Q170A
modifications: extracellular domain
notes: as for B1
- number of osteoclasts (fig. 1f) (sRANKL protein 25 ng/mL): 218 and 174 and 207
- number of osteoclasts (fig. 1f) (sRANKL protein 50 ng/mL): 153 and 140 and 132
- number of osteoclasts (fig. 1f) (sRANKL protein 100 ng/mL): 166 and 142 and 153
- number of osteoclasts (fig. 1f) (sRANKL protein 200 ng/mL): 155 and 163 and 151

B3: K283A (protein, UniProt Q9ESE2 69-318, looked up, variant K283A)
extracellular domain: B1 extracellular domain with A158H, K215A
modifications: extracellular domain
- osteoclast formation (fig. S4a) (25 ng/mL): 4 (2×) and 8
- osteoclast formation (fig. S4a) (50 ng/mL): 11
- osteoclast formation (fig. S4a) (100 ng/mL): 15 and 19 and 17
- osteoclast formation (fig. S4a) (200 ng/mL): 23 and 19 and 24

B4: E270A: single-point mutated rat sRANKL (protein)
chain: KPEAQPFAHLTINAADIPSGSHKVSLSSWYHDRGWAKISNMTLSNGKLRVNQDGFYYLYANICFRHHETSGSVPADYLQLMVYVVKTSIKIPSSHNLMKGGSTKNWSGNSAFHFYSINVGGFFKLRAGEEISVQVSNPSLLDPDQDATYFGAFKVQDID
modifications: left off: His6, N-terminal, cleaved | SUMO, N-terminal, cleaved
notes: as for B1
- number of osteoclasts (fig. 1f) (sRANKL protein 25 ng/mL): 0
- number of osteoclasts (fig. 1f) (sRANKL protein 50 ng/mL): 0
- number of osteoclasts (fig. 1f) (sRANKL protein 100 ng/mL): 0
- number of osteoclasts (fig. 1f) (sRANKL protein 200 ng/mL): 0

B5: Y242A: single-point mutated rat sRANKL (protein)
chain: B4 chain with Y83A, A111E
modifications: left off: His6, N-terminal, cleaved | SUMO, N-terminal, cleaved
notes: as for B1
- number of osteoclasts (fig. 1f) (sRANKL protein 50 ng/mL): 1 and 2
- number of osteoclasts (fig. 1f) (sRANKL protein 100 ng/mL): 5 and 7
- number of osteoclasts (fig. 1f) (sRANKL protein 200 ng/mL): 12 and 14 and 11

B6: D301A: single-point mutated rat sRANKL (protein)
chain: B4 chain with A111E, D142A
modifications: left off: His6, N-terminal, cleaved | SUMO, N-terminal, cleaved
notes: as for B1
- number of osteoclasts (fig. 1f) (sRANKL protein 25 ng/mL): 0
- number of osteoclasts (fig. 1f) (sRANKL protein 50 ng/mL): 0
- number of osteoclasts (fig. 1f) (sRANKL protein 100 ng/mL): 0
- number of osteoclasts (fig. 1f) (sRANKL protein 200 ng/mL): 0

B7: R224A: single-point mutated rat sRANKL (protein)
chain: B4 chain with R65A, A111E
modifications: left off: His6, N-terminal, cleaved | SUMO, N-terminal, cleaved
notes: as for B1
- number of osteoclasts (fig. 1f) (sRANKL protein 25 ng/mL): 0
- number of osteoclasts (fig. 1f) (sRANKL protein 50 ng/mL): 0
- number of osteoclasts (fig. 1f) (sRANKL protein 100 ng/mL): 0
- number of osteoclasts (fig. 1f) (sRANKL protein 200 ng/mL): 0

B8: D303A: single-point mutated rat sRANKL (protein)
chain: B4 chain with A111E, D144A
modifications: left off: His6, N-terminal, cleaved | SUMO, N-terminal, cleaved
notes: as for B1
- number of osteoclasts (fig. 1f) (sRANKL protein 25 ng/mL): 0
- number of osteoclasts (fig. 1f) (sRANKL protein 50 ng/mL): 0
- number of osteoclasts (fig. 1f) (sRANKL protein 100 ng/mL): 0
- number of osteoclasts (fig. 1f) (sRANKL protein 200 ng/mL): 0

B9: E227A: single-point mutated rat sRANKL (protein)
chain: B4 chain with E68A, A111E
modifications: left off: His6, N-terminal, cleaved | SUMO, N-terminal, cleaved
notes: as for B1
- number of osteoclasts (fig. 1f) (sRANKL protein 25 ng/mL): 0
- number of osteoclasts (fig. 1f) (sRANKL protein 50 ng/mL): 0
- number of osteoclasts (fig. 1f) (sRANKL protein 100 ng/mL): 0
- number of osteoclasts (fig. 1f) (sRANKL protein 200 ng/mL): 0

B10: WT: wild type recombinant rat sRANKL (protein)
chain: B4 chain with A111E
modifications: left off: His6, N-terminal, cleaved | SUMO, N-terminal, cleaved
notes: wild type recombinant rat sRANKL
- osteoclast formation (fig. S4a) (25 ng/mL): 53 and 61 and 57
- osteoclast formation (fig. S4a) (50 ng/mL): 118 and 103 and 116
- osteoclast formation (fig. S4a) (100 ng/mL): 201 and 205
- osteoclast formation (fig. S4a) (200 ng/mL): 201 and 205
- number of osteoclasts (fig. 1f) (sRANKL protein 25 ng/mL): 53 and 61 and 57
- number of osteoclasts (fig. 1f) (sRANKL protein 50 ng/mL): 118 and 103 and 116
- number of osteoclasts (fig. 1f) (sRANKL protein 100 ng/mL): 198 and 201 and 205
- number of osteoclasts (fig. 1f) (sRANKL protein 200 ng/mL): 198 and 201 and 205
- osteoclastogenesis activity, osteoclast number (fig. S3a source data) (L-RANKL vs WT sRANKL, listed as WT-RANKL): 341 and 355 and 358

B11: K182A: single-point mutated rat sRANKL (protein)
chain: B4 chain with K23A, A111E
modifications: left off: His6, N-terminal, cleaved | SUMO, N-terminal, cleaved
notes: as for B1
- number of osteoclasts (fig. 1f) (sRANKL protein 25 ng/mL): 0
- number of osteoclasts (fig. 1f) (sRANKL protein 50 ng/mL): 0
- number of osteoclasts (fig. 1f) (sRANKL protein 100 ng/mL): 0
- number of osteoclasts (fig. 1f) (sRANKL protein 200 ng/mL): 0
